Reference: patent US20190062420A1 (Janssen / Centocor, published 2019)
Read-outs that look alike come from different tables or passages of the source. Values belong to the binder of their own block, whether it stands above or below them.

Tests used:
[1] = target: T1, human FcγRIIA (NM_021642) expressed on cells (human, UniProt P12318 36-317); test: cell-based or functional assay
T1 sequence: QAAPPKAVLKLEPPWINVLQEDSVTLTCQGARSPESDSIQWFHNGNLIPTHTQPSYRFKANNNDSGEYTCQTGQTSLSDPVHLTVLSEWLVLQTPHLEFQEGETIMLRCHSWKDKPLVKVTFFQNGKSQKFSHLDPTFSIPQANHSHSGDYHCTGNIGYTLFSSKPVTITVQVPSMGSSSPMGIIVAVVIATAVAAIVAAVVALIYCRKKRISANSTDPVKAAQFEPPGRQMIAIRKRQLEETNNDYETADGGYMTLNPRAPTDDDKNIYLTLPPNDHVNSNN

[2] = target: T1, human FcγRIIA (NM_021642) expressed on …; test: flow cytometry; Expi293F cells transfected with FcγRIIA
[3] = target: T2, human FcγRIIB (NM_004001) expressed on cells (human, UniProt P31994 43-310); test: flow cytometry; Expi293F cells transfected with FcγRIIB
T2 construct: Transiently expressed on Expi293F cells; also called Expi293F FcγRIIB; HEK293F cells expressing FcγRIIB
T2 sequence: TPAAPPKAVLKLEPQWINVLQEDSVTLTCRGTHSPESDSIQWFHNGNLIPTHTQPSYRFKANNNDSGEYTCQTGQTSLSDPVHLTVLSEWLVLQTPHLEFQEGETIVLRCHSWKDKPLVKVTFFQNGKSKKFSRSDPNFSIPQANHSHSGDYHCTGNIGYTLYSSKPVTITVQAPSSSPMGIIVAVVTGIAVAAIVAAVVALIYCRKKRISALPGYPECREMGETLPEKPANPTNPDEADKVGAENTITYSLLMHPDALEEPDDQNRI

[4] = target: T1, human FcγRIIA (NM_021642) expressed on …; test: flow cytometry; Expi293F cells transfected with FcγRIIA; remark: listed apart in the source
Method: Plasmids expressing cDNAs encoding human FcγRI (NM_000566) (SEQ ID NO: 44), FcγRIIA (NM_021642) (SEQ ID NO: 2), FcγRIIB (NM_004001) (SEQ ID NO: 3), and FcγRIIIA (NM_000569) (SEQ ID NO: 45) (Origene) were transiently transfected into Expi293F cells by ExpiFectamine293 transfection kit (Life Technologies). Flow cytometry assays were performed 48 h after transfection.
2×10⁵ cells per well were seeded in 96-well plate and blocked in BSA Stain Buffer (BD Biosciences, San Jose, USA) for 30 min at 4° C. Cells were incubated with test mAbtyrin on ice for 1.5 h at 4° C. After being washed twice with BSA stain buffer, the cells were incubated with R-PE labeled anti-human or anti-mouse IgG secondary antibody (Jackson Immunoresearch Laboratories) for 45 min at 4° C. The cells were washed twice in stain buffer and then resuspended in 150 μL of Stain Buffer containing 1:200 diluted DRAQ7 live/dead stain (Cell Signaling Technology, Danvers, USA). PE and DRAQ7 signals of the stained cells were detected by Miltenyi MACSQuant flow cytometer (Miltenyi Biotec, Auburn, USA) using B2 and B4 channel respectively. Live cells were gated on DRAQ7 exclusion and the geometric mean fluorescence signals were determined for at least 10,000 live events collected. FlowJo software (Tree Star) was used for analysis. Data was plotted as the logarithm of antibody concentration versus mean fluorescence signals. Nonlinear regression analysis was performed by GraphPad Prism 6 (GraphPad Software, Inc.) and EC₅₀ values were calculated.

[5] = target: T2, human FcγRIIB (NM_004001) expressed on …; test: flow cytometry; Raji cells (express predominantly FcγRIIB)
How it was run: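 Raji B cells, predominantly FcγRIIB-expressing, BSA-blocked, then incubated with mAbtyrin titrations 1.5 h at 4° C. Bound antibody detected with PE-labeled anti-human IgG F(ab′) 45 min at 4° C. Geometric mean fluorescence from ≥10,000 DRAQ7-excluded live cells; EC₅₀ by nonlinear regression of log concentration.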

FcγRIIB protein = target: T3, FcγRIIB protein (human, UniProt P31994 43-217, biotinylated (SureLINK Biotin Kit) in the ELISA of Example 1); test: ELISA; FcγRIIB protein coated on plate, anti-human IgG-HRP detection
T3 construct: Soluble/recombinant antigen used in ELISA; also called bt-FcγRIIB; recombinant FcγRIIB protein
T3 sequence: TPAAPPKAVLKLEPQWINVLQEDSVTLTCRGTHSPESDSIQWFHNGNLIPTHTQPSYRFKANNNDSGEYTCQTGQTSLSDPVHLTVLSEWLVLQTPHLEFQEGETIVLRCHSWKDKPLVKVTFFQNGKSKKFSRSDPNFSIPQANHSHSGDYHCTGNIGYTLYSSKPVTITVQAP
Method: Effect of the mAbtyrins on T cell activation was evaluated. Briefly, recombinant FcγRIIB or FcγRIIA protein was coated on the plate to provide the crosslinking activity. For T cell activation assay, 100 μL of 30 ng/mL anti-CD3 antibody (OKT3) and 1 μg/mL FcγRIIB or FcγRIIA protein in DPBS were coated in U-bottomed 96-well tissue culture plate overnight. CD4 positive T cells were isolated from PBMC by negative selection. OX40 expression was induced by culturing the isolated T cells in the presence of 1 μg/mL PHA overnight. On the assay day, the coating solution in the plate were aspirated and 150 μL RPMI media was added to block the plate. The cultured T cells were washed three times by RPMI culture media and between 25,000 to 50,000 CD4 positive T cells were seeded in each well in the assay plate. Test mAbtyrins were added to the cells and the plate was incubated for 3 days. T cell activation was assessed by the induction of IFNγ or TNFα production, which was quantitated by human IFNγ or TNFα ELISA detection kit (Biolegend). Prior to T cell activation assay, the binding affinity of mAbtyrins to immobilized FcγRIIB or FcγRIIA protein were evaluated by an ELISA assay. […] The binding of mAbtyrins to immobilized FcγRIIB or FcγRIIA protein were detected by HRP-conjugated anti-Human IgG(γ) secondary antibody and quantitated by ELISA assay using TMB substrate.

EC50 [2]: 0.091 µg/mL
EC50 [3]: 0.512 µg/mL
EC50 [4]: 0.066 µg/mL
Binding to Raji cells mean signals at 10 µg/ml [5]: 11900 mean fluorescence signal
EC50 [5]: 1.44 µg/mL
B1: OX40SF2IgG2sigma_R2BS29_HC-C (bispecific antibody)
heavy: QVQLVQSGAEVKKPGSSVKVSCKASGYTFKDYTMHWVRQAPGQGLEWIGGIYPNNGGSTYNQNFKDRVTLTADKSTSTAYMELSSLRSEDTAVYYCARMGYHGPHLDFDVWGQGTTVTVSSASTKGPSVFPLAPCSRSTSESTAALGCLVKDYFPEPVTVSWNSGALTSGVHTFPAVLQSSGLYSLSSVVTVPSSNFGTQTYTCNVDHKPSNTKVDKTVERKCCVECPPCPAPPAAASSVFLFPPKPKDTLMISRTPEVTCVVVDVSAEDPEVQFNWYVDGVEVHNAKTKPREEQFNSTFRVVSVLTVLHQDWLNGKEYKCKVSNKGLPSSIEKTISKTKGQPREPQVYTLPPSREEMTKNQVSLTCLVKGFYPSDIAVEWESNGQPENNYKTTPPMLDSDGSFFLYSKLTVDKSRWQQGNVFSCSVMHEALHNHYTQKSLSLSPGKGGGGGSGGGGSGGGGSGGGGSLPAPKNLVVSRVTEDSARLSWTAPDAAFDSFPIYYWEYRVGGEAIVLTVPGSERSYDLTGLKPGTEYFVYINGVKGGEESRPLSAIFTT
light: DIQMTQSPSSLSASVGDRVTITCKASQDVGAAVAWYQQKPGKAPKLLIYWASTRHTGVPSRFSGSGSGTDFTLTISSLQPEDFATYYCQQYINYPLTFGGGTKVEIKRTVAAPSVFIFPPSDEQLKSGTASVVCLLNNFYPREAKVQWKVDNALQSGNSQESVTEQDSKDSTYSLSSTLTLSKADYEKHKVYACEVTHQGLSSPVTKSFNRGEC
notes: mAbtyrin: anti-OX40 antibody OX40SF2, effector silent IgG2sigma, with linker and R2BS29 FN3 domain at the C-terminus of the heavy chain; also called mAbtyrin
% OX40 cell killed by macrophages (ADCP, 1 µg/ml) [1]: 88%

EC50 [2]: > 10 µg/mL
EC50 [3]: > 10 µg/mL
Binding to Raji cells mean signals at 10 µg/ml [5]: 330 mean fluorescence signal
EC50 [5]: > 10 µg/mL
binding result (FcγRIIB protein): no binding
B2: OX40SF2IgG2sigma (antibody)
heavy: QVQLVQSGAEVKKPGSSVKVSCKASGYTFKDYTMHWVRQAPGQGLEWIGGIYPNNGGSTYNQNFKDRVTLTADKSTSTAYMELSSLRSEDTAVYYCARMGYHGPHLDFDVWGQGTTVTVSSASTKGPSVFPLAPCSRSTSESTAALGCLVKDYFPEPVTVSWNSGALTSGVHTFPAVLQSSGLYSLSSVVTVPSSNFGTQTYTCNVDHKPSNTKVDKTVERKCCVECPPCPAPPAAASSVFLFPPKPKDTLMISRTPEVTCVVVDVSAEDPEVQFNWYVDGVEVHNAKTKPREEQFNSTFRVVSVLTVLHQDWLNGKEYKCKVSNKGLPSSIEKTISKTKGQPREPQVYTLPPSREEMTKNQVSLTCLVKGFYPSDIAVEWESNGQPENNYKTTPPMLDSDGSFFLYSKLTVDKSRWQQGNVFSCSVMHEALHNHYTQKSLSLSPGK
light: B1 light
notes: Anti-OX40 antibody, IgG2 sigma isotype (effector silent Fc: V234A, G237A, P238S, H268A, V309L, A330S, P331S against wild type IgG2); control without FN3 domain; also called parental antibody; parental OX40 antibody
% OX40 cell killed by macrophages (ADCP, 1 µg/ml) [1]: 12%

EC50 [4]: 3.3 µg/mL
binding result (FcγRIIB protein): no binding
B3: OX40SF2IgG1 (antibody)
heavy: not shown
light: B1 light
notes: Anti-OX40 antibody, wild-type IgG1; control without FN3 domain
